Legend:
[1] = molecular target: DPP4/CD26 on human CD3 expressing T cells (human) (UniProt P27487); test: flow cytometry of human PBMCs, MERS-RBD - AF488 against CD3 - PerCP-Cy5
[2] = molecular target: MERS-CoV RBD (wild type, amino acids G372-L588, AviTag, Twin Strep tag, 6xHis) (MERS-CoV); test: rabbit DPP4

Sequence of DPP4/CD26 on human CD3 expressing T cells (human) (P27487 whole entry, the tested form may be a part): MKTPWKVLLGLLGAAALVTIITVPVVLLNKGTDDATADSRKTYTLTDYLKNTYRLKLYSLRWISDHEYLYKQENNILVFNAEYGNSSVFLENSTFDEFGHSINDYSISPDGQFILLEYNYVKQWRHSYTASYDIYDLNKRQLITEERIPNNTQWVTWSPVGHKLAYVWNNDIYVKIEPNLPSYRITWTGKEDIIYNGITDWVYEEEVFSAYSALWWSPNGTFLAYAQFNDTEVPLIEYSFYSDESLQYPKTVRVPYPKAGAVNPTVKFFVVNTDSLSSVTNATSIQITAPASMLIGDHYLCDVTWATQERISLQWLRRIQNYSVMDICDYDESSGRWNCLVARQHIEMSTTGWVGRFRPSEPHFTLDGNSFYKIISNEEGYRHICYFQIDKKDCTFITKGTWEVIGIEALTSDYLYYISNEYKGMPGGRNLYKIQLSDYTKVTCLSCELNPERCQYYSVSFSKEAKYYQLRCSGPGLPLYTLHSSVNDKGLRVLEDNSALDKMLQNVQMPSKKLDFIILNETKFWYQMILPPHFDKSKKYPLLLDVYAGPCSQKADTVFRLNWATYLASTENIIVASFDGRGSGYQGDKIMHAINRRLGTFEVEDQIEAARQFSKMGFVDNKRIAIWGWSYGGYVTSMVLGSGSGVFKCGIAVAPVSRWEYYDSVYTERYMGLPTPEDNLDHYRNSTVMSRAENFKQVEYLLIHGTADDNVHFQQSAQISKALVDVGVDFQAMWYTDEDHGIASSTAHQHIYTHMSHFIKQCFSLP

Substance	CD3+ MERS-RBD+ quadrant frequency (percent of gated DAPI- lymphocytes) [1]	Kd [2] [nM]
MERS-CoV RBD (wild type, amino acids G372-L588, AviTag, Twin Strep tag, 6xHis) (ligand; other documents disagree on this pair)	4.92	
recombinant rabbit DPP4 with a C-terminal 6xHis-tag (rbDPP4-His) (from UniProt A0A5F9CKR3 29-732) (receptor)		34.3
